Data: patent US6867177B2, “CD39/ECTO-adpase as a treatment for thrombotic and ischemic disorders” (The Trustees of Columbia University in the City of New York, priority 1999, dated 2005)

Assays:
murine platelets = experiment: Murine platelet aggregation (aggregometry of platelet-rich plasma from treated mice); type: cell-based; settings: for platelet aggregation response to ADP: ADP 2.5 or 10 μM, CD39 4 mg/kg, aspirin 5 mg/kg; for platelet aggregation response to ADP / platelet aggregation response to collagen / platelet aggregation response to sodium arachidonate: agent given to mice 45 minutes prior to harvest of blood; for platelet aggregation response to collagen: collagen 2.5 or 10 μg/mL; for platelet aggregation response to sodium arachidonate: sodium arachidonate 0.1 mM
Method: Preparation of Murine Platelets: Mice (untreated, treated with 4 mg/kg CD39, or treated with […]) were anesthetized and heparinized (10 U/g), prior to blood collection via cardiac puncture performed with 22 gauge, 1 cc syringe. Immediately following collection, 80 μl 3.8% trisodium citrate was added to each mL of blood. Blood from 6-8 mice was pooled in a 15 mL tube centrifuge tube (Flacon, polypropylene). Platelet-rich plasma (PRP) was prepared with an initial whole blood centrifugation (900 g, 3 min, 20° C., no brake), and a second centrifugation of PRP (100 g, 2 min) to eliminate residual erythrocytes and leukocytes. The stock suspension of PRP was maintained at room temperature. PRP platelet counts were 400-700×10^3 platelets per μl.
Platelet aggregation studies: PRP (200 μl) was pre-incubated (3 min, 37° C.) with 100 μl Tris-buffered saline (TSG) buffer (15 mM Tris, 134 mM NaCl, 5 mM glucose, pH 7.4) in an aggregometer cuvette (Lumiaggregometer; Chrono-Log, Havertown, Pa.). After the 3 min, 37° C. preincubation ≈5.0 C 10^5 platelets, platelet agonist (ADP, collagen, sodium arachidonate) were added at the concentration indicated. Total volumes were adjusted to 300 μl with TSG buffer, and the aggregation response recorded for 2-4 min. Agonists were prepared as 100× solution: ADP was in TSG buffer, collagen in acidified isotonic glucose ([…], Munchen, Germany), and sodium arachidonate in 0.85% saline. All aggregation studies were completed within two hours of blood collection.
Quantitation of Platelet Aggregation: Area under the curve was estimated by multiplying the height of the curve with its width at half height. The former was measured form pre-simulation baseline to the middle of the highest point of the curve. However, when curves were less than ⅓ of maximal height, the lowest point of the shape change portion of the curve was considered baseline. […] These criteria underestimate large aggregation responses, and overestimate small ones. Thus we knowingly underestimated the effects of compounds with great inhibitory capacity. This approach was preferred over one that could have overemphasized inhibitory potential.
Murine platelet aggregation: C57/6J BL mice (6-8 weeks) were obtained from Jackson Laboratories, Bar Harbor, Me.). Untreated mice, and mice treated with 4 mg/kg CD39, with 5 mg/kg aspirin or phosphate buffered saline, were anesthetized and heparinized (10 U/g), prior to blood collection via cardiac puncture; 80 μL 3.8% trisodium citrate was added to each mL of blood. Samples from 6-8 mice were pooled and platelet-rich plasma (PRP) prepared by centrifugation (900 g, 3 min, 20° C., followed by 100 g, 2 min to eliminate residual erythrocytes and leukocytes). PRP contained 400-700×10^3 platelets per μL. PRP (200 μL) was preincubated (3 min, 37° C.) with 100 μL Tris-buffered saline (TSG) buffer (15 mM Tris, 134 mM NaCl, 5 mM glucose, pH 7.4)^11,23,24 in an aggregometer cuvette (Lumiaggregometer; Chrono-Log, Havertown, Pa.). Platelet agonists (ADP, collagen (Hormon Chemie, Munchen, Germany), or sodium arachidonate (Nu-Check Prep, Elysian, Minn.)) were added at the final concentrations indicated. Aggregation responses were recorded for 2-4 min, and expressed as area under the curve (height times width at ½ height). All experiments were completed within two hours of blood collection.

[1] = system: stroke (focal cerebral ischemia and reperfusion); settings: for postischemic cerebral perfusion (cerebral blood flow): laser Doppler, ischemic vs nonischemic hemisphere; for cerebral infarct volume: preoperatively administered, CD39 4 and 8 mg/kg, aspirin 5 mg/kg, 24 hours
[2] = Measurement of bleeding time (tail vein incision); type: in vivo; settings: mice not subjected to other manipulation; intravenous
Method: Measurement of Bleeding Time: Bleeding times were measured in mice which were not subjected to experimental manipulation other than by receiving either vehicle (saline) or CD39 prepared in physiological saline and administered intravenously 5 minutes prior to the experiment. Following anesthesia, a standardized incision was made on the central dorsal tail vein, and the tail was then immersed in physiological saline at 37.5° C.

[3] = cited from earlier work
platelets = settings: cited from earlier work
[4] = system: lung ischemia and reperfusion; experiment: Mouse model of lung ischemia and reperfusion; type: in vivo, mice; settings: CD39 8 mg/kg; 1 hour ischemia, 2 hour reperfusion, observation 1 hour; four experiments
Method: In these studies, murine ischemic reperfusion model was used. In the mouse model of lung ischemia, mice were initially anesthetized intraperitoneal with 0.1 mg/mouse weight (g) of ketamine and 0.01 mg/mouse weight (g) of xylazine, following by intraperitoneal continuous infusion of one third of the initial dose per hour using a syringe pump (model 100 series, KD Scientific Inc. Mass.). After ensuring appropriate depth of anesthesia, mice were intubated via tracheostomy and placed on a Harvard ventilator (tidal volume=0.75 mL, respiratory rate=120/min) with room air, followed by bilateral thoracotomy. The left hilum was cross-clamped for a period of 1 hour after which the cross-clamp was released. Reperfusion proceeded for 2 hours.
For all experiments, the surgical operator was blinded by a colleague in the laboratory to the specific substance being injected (vehicle or CD39, 8 mg/kg). Experimental procedures were as follows. […]

[5] = peptide affinity purified from CHO conditioned medium; cited from earlier work
[6] = treatment either prior to, or up to 3 hours following stroke
[7] = control, CD39-/- and reconstituted CD39-/- mice

CC(=O)Oc1ccccc1C(=O)O [aspirin, reference compound]
platelet aggregation response to ADP (murine platelets): strongly aggregated
platelet reactivity to collagen at any collagen dose (murine platelets; any collagen dose): little effect
platelet aggregation response to collagen (murine platelets): strongly aggregated
platelet aggregation response to sodium arachidonate (murine platelets): abrogated
postischemic cerebral perfusion (cerebral blood flow) [1]: did not improve
cerebral infarct volume [1]: tendency to decrease cerebral infarct volume, the effect was not statistically significant
bleeding time [2]: markedly increased

B1: CD39: recombinant soluble CD39 (SEQ ID NO:2): four apyrase domains, lacking the two transmembrane regions, IL-2 leader, expressed in CHO cells (protein, listed as Homo sapiens)
chain: TQNKALPENVKYGIVLDAGSSHTSLYIYKWPAEKENDTGVVHQVEECRVKGPGISKFVQKVNEIGIYLTDCMERAREVIPRSQHQETPVYLGATAGMRLLRMESEELADRVLDVVERSLSNYPFDFQGARIITGQEEGAYGWITINYLLGKFSQKTRWFSIVPYETNNQETFGALDLGGASTQVTFVPQNQTIESPDNALQFRLYGKDYNVYTHSFLCYGKDQALWQKLAKDIQVASNEILRDPCFHPGYKKVVNVSDLYKTPCTKRFEMTLPFQQFEIQGIGNYQQCHQSILELFNTSYCPYSQCAFNGIFLPPLQGDFGAFSAFYFVMKFLNLTSEKVSQEKVTEMMKKFCAQPWEEIKTSYAGVKEKYLSEYCFSGTYILSLLLQGYHFTADSWEHIHFIGKIQGSDAGWTLGYMLNLTNMIPAEQPLSTPLSHST
platelet aggregation response to ADP (murine platelets): completely abrogated
platelet aggregation response to collagen (murine platelets): attenuated
platelet reactivity to higher doses of collagen (murine platelets; higher doses of collagen): do respond
platelet reactivity to low-dose collagen (murine platelets; low-dose collagen): inhibited
platelet aggregation response to sodium arachidonate (murine platelets): did not inhibit the initial activation phase of platelet aggregation to arachidonate, but rapidly disaggregated platelets during the initial recruitment phase
cerebroprotection ([1]; administered three hours after onset of stroke (8 mg/kg)): significant cerebroprotection
platelet accumulation in the ipsilateral cerebral hemisphere ([1]; intravenously injected, 111In-labeled platelets, 24 hours of reperfusion): inhibited
fibrin accumulation in the ipsilateral cerebral hemisphere ([1]; intravenously injected, fibrin immunoblot): inhibited
postischemic cerebral perfusion (cerebral blood flow) [1]: improved
intracerebral hemorrhage ([1]; mouse, in vivo): without an increase
cerebral infarct volume [1]: dose-dependent diminution
mortality [1, 6]: reduced
neurological deficit [1, 6]: reduced
elimination half-time in mice [3]: 2 days
ADP-induced platelet aggregation in vitro (platelets): blocked
mouse survival following functional removal of the contralateral (nonischemic) lung [4]: 100%
apyrase activity [5]: potent apyrase activity
bleeding time [2]: dose-dependent increase
cerebral infarct volume (stroke in CD39-/- mice; CD39-/- mice reconstituted with CD39, 24 hours): markedly diminished
intracerebral hemorrhage (stroke in CD39-/- mice; [7]): did not differ between groups
neurological deficit scores (stroke in CD39-/- mice; [7]): did not differ between groups
overall mortality (stroke in CD39-/- mice; [7]): did not differ between groups
